According to patent US20250304717A1, “CAMPTOTHECIN DERIVATIVE AND LIGAND-DRUG CONJUGATE” (HAINAN SIMCERE ZAIMING PHARMACEUTICAL CO., LTD., priority 2022, published 2025):

T1: CDH6 on OVCAR3 cells (human, UniProt P55285 54-790)
T1 construct: whole, on cells; also called CDH6 positive cells OVCAR3; CDH6 high-expression cell strain
T1 sequence (looked up): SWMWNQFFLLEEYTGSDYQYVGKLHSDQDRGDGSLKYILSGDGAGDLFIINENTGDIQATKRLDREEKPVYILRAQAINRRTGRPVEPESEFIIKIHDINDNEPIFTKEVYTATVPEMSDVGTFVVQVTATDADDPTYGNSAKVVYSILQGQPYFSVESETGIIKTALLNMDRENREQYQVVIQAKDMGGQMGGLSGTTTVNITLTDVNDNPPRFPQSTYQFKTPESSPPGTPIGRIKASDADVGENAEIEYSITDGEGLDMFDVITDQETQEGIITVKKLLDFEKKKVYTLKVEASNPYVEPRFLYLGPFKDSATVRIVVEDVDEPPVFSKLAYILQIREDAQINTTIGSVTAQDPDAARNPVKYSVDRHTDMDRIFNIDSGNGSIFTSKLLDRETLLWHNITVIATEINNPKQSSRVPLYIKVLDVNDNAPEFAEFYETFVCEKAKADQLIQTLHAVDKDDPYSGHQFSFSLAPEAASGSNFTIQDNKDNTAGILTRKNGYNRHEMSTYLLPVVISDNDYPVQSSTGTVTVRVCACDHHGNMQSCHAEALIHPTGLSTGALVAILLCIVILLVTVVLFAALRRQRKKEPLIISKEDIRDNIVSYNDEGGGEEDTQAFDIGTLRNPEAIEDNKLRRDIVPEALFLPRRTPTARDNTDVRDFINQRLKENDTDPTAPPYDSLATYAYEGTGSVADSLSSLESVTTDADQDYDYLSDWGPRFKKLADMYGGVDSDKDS


Molecular target: T1, CDH6 on OVCAR3 cells
Assay: flow cytometry (FACS) on OVCAR3 cells, Alexa Fluor 647 anti-human Fc secondary antibody, MFI, four-parameter fit
Method: OVCAR3 cells were collected, counted, and plated in a 96-well plate (Corning, 3795) at 2×10⁵ cells/well. The serially diluted sample to be detected was added and incubated at 4° C. for 1 h. After the mixture was washed twice with ice PBS, Alexa Fluor-647 Goat anti-human Fc secondary antibody (JacksonImmuno, 109-605-098) was added, and the mixture was incubated at 4° C. for 1 h. After the mixture was washed twice with ice PBS, the cells were resuspended, and the mean fluorescence intensity (MFI) was analyzed using a flow cytometer (BD FACSCanto™ II). Data were analyzed by four-parameter curve fitting using Graphpad Prism software to give EC₅₀ values.

Row | Binder | EC50 [nM]
1 | ADC-L1-14-P1-3 (antibody, human IgG1, kappa, V domains shown, drug-linker L1-14-P1 on cysteine thiols after TCEP reduction; positions not given; DAR 8.5 for the whole conjugate, Antibody-drug conjugate) VH: EVQLVQSGAEVKKPGASVKVSCKASGYTFTRNFMHWVRQAPGQGLEWMGWIYPGDGETEYAQKFQGRVTITADTSTSTAYMELSSLRSEDTAVYYCARGVYGGFAGGYFDFWGQGTLVTVSS VL: DIQMTQSPSSLSASVGDRVTITCKASQNIYKNLAWYQQKPGKAPKLLIYDANTLQTGVPSRFSGSGSGSDFTLTISSLQPEDFATYFCQQYYSGWAFGQGTKVEIKR | 0.49
2 | ADC-L1-19-3 (antibody, human IgG1, kappa, V domains shown, drug-linker L1-19 on cysteine thiols after TCEP reduction; positions not given; DAR 7.1 for the whole conjugate, Antibody-drug conjugate) VH: EVQLVQSGAEVKKPGASVKVSCKASGYTFTRNFMHWVRQAPGQGLEWMGWIYPGDGETEYAQKFQGRVTITADTSTSTAYMELSSLRSEDTAVYYCARGVYGGFAGGYFDFWGQGTLVTVSS VL: DIQMTQSPSSLSASVGDRVTITCKASQNIYKNLAWYQQKPGKAPKLLIYDANTLQTGVPSRFSGSGSGSDFTLTISSLQPEDFATYFCQQYYSGWAFGQGTKVEIKR | 0.34
3 | ADC-L1-19-P1-3 (antibody, human IgG1, kappa, V domains shown, drug-linker L1-19-P1 on cysteine thiols after TCEP reduction; positions not given; DAR 7.2 for the whole conjugate, Antibody-drug conjugate) VH: EVQLVQSGAEVKKPGASVKVSCKASGYTFTRNFMHWVRQAPGQGLEWMGWIYPGDGETEYAQKFQGRVTITADTSTSTAYMELSSLRSEDTAVYYCARGVYGGFAGGYFDFWGQGTLVTVSS VL: DIQMTQSPSSLSASVGDRVTITCKASQNIYKNLAWYQQKPGKAPKLLIYDANTLQTGVPSRFSGSGSGSDFTLTISSLQPEDFATYFCQQYYSGWAFGQGTKVEIKR | 0.36
4 | CDH6-Ab (antibody, human IgG1, kappa, V domains shown, also called anti-human CDH6 monoclonal antibody CDH6-Ab) VH: EVQLVQSGAEVKKPGASVKVSCKASGYTFTRNFMHWVRQAPGQGLEWMGWIYPGDGETEYAQKFQGRVTITADTSTSTAYMELSSLRSEDTAVYYCARGVYGGFAGGYFDFWGQGTLVTVSS VL: DIQMTQSPSSLSASVGDRVTITCKASQNIYKNLAWYQQKPGKAPKLLIYDANTLQTGVPSRFSGSGSGSDFTLTISSLQPEDFATYFCQQYYSGWAFGQGTKVEIKR | 0.71
5 | ADC-L1-19-5 (antibody, human IgG1, kappa, V domains shown, drug-linker L1-19 on cysteine thiols after TCEP reduction; positions not given; DAR 6.8 for the whole conjugate, Antibody-drug conjugate) VH: EVQLVQSGAEVKKPGASVKVSCKASGYTFTDNYINWVRQAPGQRLEWMGWIYPGTGNSYYNEKFKGRVTITVDTSASTAYMELSSLRSEDTAVYLCASSYGDSFDYWGQGTTVTVSS VL: DIVMTQSPDSLAVSLGERATINCRASQDIRNYLNWYQQKPGQTPKLLISYTSRLHSGVPDRFSGSGSGTDFTLTISSLQAEDVAVYYCQQYSQLPWTFGGGTKVEIKR | 0.51
6 | CDH6-Ab-2 (antibody, human IgG1, kappa, V domains shown, also called humanized anti-human CDH6 antibody CDH6-Ab-2) VH: EVQLVQSGAEVKKPGASVKVSCKASGYTFTDNYINWVRQAPGQRLEWMGWIYPGTGNSYYNEKFKGRVTITVDTSASTAYMELSSLRSEDTAVYLCASSYGDSFDYWGQGTTVTVSS VL: DIVMTQSPDSLAVSLGERATINCRASQDIRNYLNWYQQKPGQTPKLLISYTSRLHSGVPDRFSGSGSGTDFTLTISSLQAEDVAVYYCQQYSQLPWTFGGGTKVEIKR | 0.63
7 | ADC-L1-19-6 (antibody, human IgG1, kappa, V domains shown, drug-linker L1-19 on cysteine thiols after TCEP reduction; positions not given; DAR 7.4 for the whole conjugate, Antibody-drug conjugate) VH: EVQLVQSGAEVKKPGASVKVSCKASGYTFTDYYMAWVRQAPGQGLEWMGYIFPNSGGTDYSQKFKGRVTLTVDKSTSTVYMELSSLRSEDTAVYYCARELGADYGDYYAMDHWGQGTTVTVSS VL: DIQMTQSPSSLSASVGDRVTITCRASENIDSYLAWYQQKPGKSPKLLVYSATLLADGVPSRFSGSGSGTDYTLTISSLQPEDFATYYCQHYYRTPPTFGQGTKLEIKR | 0.85
8 | ADC-L1-19-P1-6 (antibody, human IgG1, kappa, V domains shown, drug-linker L1-19-P1 on cysteine thiols after TCEP reduction; positions not given; DAR 8.0 for the whole conjugate, Antibody-drug conjugate) VH: EVQLVQSGAEVKKPGASVKVSCKASGYTFTDYYMAWVRQAPGQGLEWMGYIFPNSGGTDYSQKFKGRVTLTVDKSTSTVYMELSSLRSEDTAVYYCARELGADYGDYYAMDHWGQGTTVTVSS VL: DIQMTQSPSSLSASVGDRVTITCRASENIDSYLAWYQQKPGKSPKLLVYSATLLADGVPSRFSGSGSGTDYTLTISSLQPEDFATYYCQHYYRTPPTFGQGTKLEIKR | 0.8
9 | CDH6-Ab-3 (antibody, human IgG1, kappa, V domains shown, also called humanized anti-human CDH6 antibody CDH6-Ab-3) VH: EVQLVQSGAEVKKPGASVKVSCKASGYTFTDYYMAWVRQAPGQGLEWMGYIFPNSGGTDYSQKFKGRVTLTVDKSTSTVYMELSSLRSEDTAVYYCARELGADYGDYYAMDHWGQGTTVTVSS VL: DIQMTQSPSSLSASVGDRVTITCRASENIDSYLAWYQQKPGKSPKLLVYSATLLADGVPSRFSGSGSGTDYTLTISSLQPEDFATYYCQHYYRTPPTFGQGTKLEIKR | 0.78
